Laboratory results from patent US7838294B2, “Inhibitors of the JNK signal transduction pathway and methods of use” (University of Massachusetts, priority 1997, dated 2010).

Legend:
[1] = molecular target: T1, JNK1 (Homo sapiens, UniProt P45983); assay: Co-immunoprecipitation of JIP-1 with JNK1 in transfected COS-1 cells; type: binding
T1 construct: expressed in transfected cells
Procedure: To test whether JIP-1 and JNK interact in vivo, co-immunoprecipitation analysis was performed. COS-1 cells were mock-transfected or transfected with JIP-1 and JNK1 expression vectors. Constructs expressing epitope (HA) tagged JNK1 have been described previously. Dérijard et al., supra; Sluss et al., supra; Gupta et al., supra. Mammalian JIP-1 expression vectors were constructed by subcloning the JIP-1 cDNA into the XbaI and HindIII sites of pCMV5 and the HindIII and EcoRI sites of pcDNA3 (Invitrogen Inc.). DNA encoding the Flag epitope, -Asp-Tyr-Lys-Asp-Asp-Asp-Asp-Lys- (SEQ ID NO:14) (Immunex Corp.), was inserted into JIP-1 cDNA between the DNA encoding the first two codons of JIP-1 using insertional overlapping polymerase chain reaction (PCR). Ho et al., Gene, 77:51 (1989). Bacterial JIP-1 expression vectors were constructed by subcloning PCR fragments of the JIP-1 cDNA into the EcoRI and XbaI sites of pGEX-3× (Pharmacia LKB Biotechnology Inc.). GST fusion proteins were purified by affinity chromatography on GSH-agarose as described previously. Smith et al., Gene, 67:31 (1988). […]
For the co-immunoprecipitation experiments, transfected or mock-transfected cells were irradiated with or without UV-C (40 J/m^2) and incubated for one hour. […] Immune complexes were detected with a second antibody coupled to horseradish peroxidase and enhanced chemiluminescence (Amersham International PLC).

[2] = molecular target: T2, JNK2 (Homo sapiens, UniProt P45984); assay: Co-immunoprecipitation of JIP-1 with JNK2; type: binding; conditions: protein immunoblot
T2 construct: expressed in transfected cells

[3] = molecular target: p38 (Homo sapiens, UniProt Q16539); assay: Co-immunoprecipitation of JIP-1 with p38 (specificity control); type: binding; conditions: control experiment
[4] = test system: p38; assay: Immune complex protein kinase assay: p38, substrate GST-ATF2; type: biochemical, Chinese hamster; conditions: in vitro, 3 μg GST-ATF2
Procedure: To test whether JIP-1 competes with Jun and ATF2 for interaction with JNK, the effect of JIP-1 on transcription factor-mediated phosphorylation of exogenous substrates was analyzed using an in vitro protein kinase assay. In these experiments, Chinese hamster ovary (CHO) cells were serum-starved for one hour. In some experiments, the cells were treated with 10 ng/ml mouse interleukin 1 or 100 nM phorbol myristic acetate. JNK, p38, and ERK protein kinase activity was measured in an immune complex kinase assay using 3 μg of the substrates GST-Jun, GST-ATF2, and myelin basic protein (MBP), respectively. Protein kinase assays were performed using 40 μl 20 mM Hepes (pH 7.4), 20 mM MgCl2, 20 mM β-glycerophosphate, 2 mM dithiothreitol, 0.1 mM sodium orthovanadate, 50 μM [γ-^32P]ATP (10 Ci/mmol). After incubation for 30 minutes at 30° C., phosphorylation of substrates was analyzed by polyacrylamide gel electrophoresis and autoradiography.

[5] = molecular target: T3, JNK (Homo sapiens, UniProt P45983); assay: Immunofluorescence: subcellular distribution of JNK on JIP-1 expression; type: cell-based; conditions: HA-JNK1 with Flag-JIP-1; control and UV-irradiated cells
T3 construct: expressed in transfected cells; host or cells: COS-1 cells (co-immunoprecipitation)
Procedure: The subcellular distribution of JIP-1 was analyzed by performing indirect immunofluorescence on JIP-1-expressing cells. In these experiments, the cells were grown on coverslips, fixed with 4% paraformaldehyde, permeabilized with 0.25% Triton X-100, and processed for immunofluorescence microscopy. JIP-1 was detected in the cytoplasm, but not the nucleus, of control and UV-irradiated cells. In contrast, JNK is detected in both the cytoplasmic and nuclear compartments.
It is likely that it is JNK in the nucleus which is involved in the regulation of gene expression. Since JIP-1 is cytoplasmic, it was unclear how it could inhibit the nuclear function of JNK. To investigate the mechanism of JIP-1 action, the distribution of JNK was examined in cells that had been transfected with either hemagglutinin (HA)-tagged JNK1 (HA-JNK1) alone, or HA-JNK1 and Flag-tagged JIP-1 (Flag-JIP-1). In these experiments, the cells were exposed to a potent JNK activator (40 J/m^2 UV-C) for one hour prior to processing for immunofluorescence. The primary antibodies used were rabbit anti-HA (12CA5; Boehringer Mannheim), which recognizes HA-tagged JNK1; and mouse monoclonal anti-Flag (M2; IBI-Kodak), which recognizes Flag-tagged JIP-1. The secondary antibodies were Texas Red-goat anti-mouse Ig and fluoroscein isothiocyanate-conjugated donkey anti-rabbit Ig (Jackson Immunoresearch). […]

[6] = molecular target: T4, p38 MAP kinase (Homo sapiens, UniProt Q16539); assay: Immunofluorescence: subcellular distribution of p38 MAP kinase on JIP-1 expression; type: cell-based
T4 construct: expressed in transfected cells
T4 sequence (Q16539 whole entry): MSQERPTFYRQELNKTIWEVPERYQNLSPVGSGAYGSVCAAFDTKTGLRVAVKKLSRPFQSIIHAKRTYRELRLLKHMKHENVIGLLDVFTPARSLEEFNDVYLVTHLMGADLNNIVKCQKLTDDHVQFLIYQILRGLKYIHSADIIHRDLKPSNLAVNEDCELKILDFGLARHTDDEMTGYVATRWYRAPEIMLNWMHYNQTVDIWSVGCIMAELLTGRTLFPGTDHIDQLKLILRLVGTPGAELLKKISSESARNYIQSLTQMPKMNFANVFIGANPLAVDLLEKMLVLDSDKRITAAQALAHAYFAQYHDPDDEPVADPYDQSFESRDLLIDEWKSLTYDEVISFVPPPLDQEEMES

T1 sequence (P45983 1-384 isoform P45983-2): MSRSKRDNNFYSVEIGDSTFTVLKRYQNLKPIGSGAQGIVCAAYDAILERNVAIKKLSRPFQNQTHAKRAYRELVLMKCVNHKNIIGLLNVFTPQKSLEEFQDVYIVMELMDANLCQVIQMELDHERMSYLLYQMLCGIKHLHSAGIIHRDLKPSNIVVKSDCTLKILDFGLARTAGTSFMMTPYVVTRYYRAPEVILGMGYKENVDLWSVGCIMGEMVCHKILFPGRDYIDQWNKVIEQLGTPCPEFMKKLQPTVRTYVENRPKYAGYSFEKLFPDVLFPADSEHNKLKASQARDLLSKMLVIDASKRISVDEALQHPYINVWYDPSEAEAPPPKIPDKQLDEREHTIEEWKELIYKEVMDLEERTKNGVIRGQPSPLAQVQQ
Chain of p38 (Homo sapiens, UniProt Q16539) (Q16539 whole entry): as the sequence (Q16539 whole entry) above
T3 sequence (P45983 1-384 isoform P45983-2): as the sequence (P45983 1-384 isoform P45983-2) above

B1: JIP-1: 660 amino acid murine cytoplasmic protein that specifically binds JNK (protein)
chain: MAERESGLGGGAASPPAASPFLGLHIASPPNFRLTHDISLEEFEDEDLSEITDECGISLQCKDTLSLRPPRAGLLSAGSSGSAGSRLQAEMLQMDLIDAAGDTPGAEDDEEEEDDELAAQRPGVGPPKAESNQDPAPRSQGQGPGTGSGDTYRPKRPTTLNLFPQVPRSQDTLNNNSLGKKHSWQDRVSRSSSPLKTGEQTPPHEHICLSDELPPQGSPVPTQDRGTSTDSPCRRSAATQMAPPSGPPATAPGGRGHSHRDRIHYQADVRLEATEEIYLTPVQRPPDPAEPTSTFMPPTESRMSVSSDPDPAAYSVTAGRPHPSISEEDEGFDCLSSPERAEPPGGGWRGSLGEPPPPPRASLSSDTSALSYDSVKYTLVVDEHAQLELVSLRPCFGDYSDESDSATVYDNCASASSPYESAIGEEYEEAPQPRPPTCLSEDSTPDEPDVHFSKKFLNVFMSGRSRSSSAESFGLFSCVINGEEHEQTHRAIFRFVPRHEDELELEVDDPLLVELQAEDYWYEAYNMRTGARGVFPAYYAIEVTKEPEHMAALAKNSCVLEISVRGVKIGVKADDALEAKGNKCSHFFQLKNISFCGYHPKNNKYFGFITKHPADHRFACHVFVSEDSTKALAESVGRAFQQFYKQFVEYTCPTEDIYLE
co-immunoprecipitation of JIP-1 with JNK1 ([1]; COS-1 cells transfected with Flag-JIP-1 and HA-JNK1, protein immunoblot): detected in JNK1 immunoprecipitates
change in amount of JNK/JIP-1 complex on exposure to UV radiation ([1]; UV-C 40 J/m2, one hour, co-immunoprecipitation): no significant change
co-immunoprecipitation of JIP-1 with JNK2 [2]: observed
co-immunoprecipitation of JIP-1 with p38 [3]: did not co-immunoprecipitate
phosphorylation of substrate by p38 [4]: no significant change
amount of nuclear JNK [5]: reduces
subcellular distribution of p38 MAP kinase [6]: no significant effect
